According to the Immune Epitope Database (IEDB):

Assays:
Test in all cases: IEDB peptide-MHC binding, purified MHC/competitive/radioactivity; filed as Kd, often an IC50 or EC50 that approximates it; ≥ and ≤ were set here for values at or beyond the usual limits of such assays
HLA-A*02:06 = target: HLA-A*02:06
HLA-A*02:02 = target: HLA-A*02:02
HLA-A*02:03 = target: HLA-A*02:03
HLA-A*11:01 = conditions: source organism: Vaccinia virus WR
HLA-A*31:01 = conditions: source organism: Vaccinia virus WR
HLA-A*68:01 = conditions: source organism: Vaccinia virus WR
HLA-A*33:01 = conditions: source organism: Vaccinia virus WR
HLA-A*03:01 = conditions: source organism: Vaccinia virus WR
[1] = source organism: Vaccinia virus WR
[2] = source organism: SARS coronavirus Tor2
[3] = source organism: Dengue virus 1 Brazil/97-11/1997
[4] = source organism: Mammarenavirus juninense
[5] = source organism: Dengue virus 3 Martinique/1243/1999
[6] = source organism: Dengue virus 2 Jamaica/1409/1983
[7] = source organism: Lymphocytic choriomeningitis virus (strain Armstrong)
[8] = source organism: Dengue virus 4 Philippines/H241/1956

Sequence | Kd (HLA-A*02:06; [1]) | Kd (HLA-A*02:02; [1]) | Kd (HLA-A*02:03; [1]) | further results
AAKTPVIVV | ≥ 25400 nM | 1360 nM | 1630 nM | 
AARLKRSAT | ≥ 63400 nM | 12500 nM | 10500 nM | 
AIMTRCLAV |  |  |  | Kd (HLA-A*02:06; [2]): 26.8 nM; Kd (HLA-A*02:02; [2]): 51.5 nM; Kd (HLA-A*02:03; [2]): 14.7 nM
AINKCVDIFT | ≥ 38600 nM | ≥ 25300 nM | ≥ 26400 nM | 
ALCESITLA |  |  |  | Kd (HLA-A*02:03; [3]): 17.3 nM
ALKNSQAELT | ≥ 27200 nM | 2120 nM | 980 nM | 
ALMTLDDLAI | 24.1 nM | 14.2 nM | 29.3 nM | 
AVYFKAKWLT | 8710 nM | ≥ 27200 nM | 8930 nM | 
CLLTDTIESA | 92.1 nM | 53 nM | 102 nM | 
CNYTKFWYV |  |  |  | Kd (HLA-A*02:06; [4]): 34.5 nM; Kd (HLA-A*02:02; [4]): 1940 nM; Kd (HLA-A*02:03; [4]): 794 nM
CTEETKRNI | ≥ 77100 nM | ≥ 77800 nM | ≥ 78100 nM | 
CVKYLLDNDI | 7580 nM | ≥ 31800 nM | 5670 nM | 
DIMLPESDL | ≥ 31600 nM | 18500 nM | ≥ 35800 nM | 
DIRDKYMEL | 14500 nM | ≥ 24300 nM | 3860 nM | 
DMDFDLNIFM | 5310 nM | 1150 nM | ≥ 5000 nM | 
ETAIRAGYSI | 17800 nM | ≥ 25800 nM | ≥ 29300 nM | 
ETIEILRNYL | 0.276 nM | 474 nM | 1410 nM | 
EVIGLTTHCT | 12200 nM | 10500 nM | 14900 nM | 
FLAFVVFLLV |  |  |  | Kd (HLA-A*02:06; [2]): 2980 nM; Kd (HLA-A*02:02; [2]): 2.36 nM; Kd (HLA-A*02:03; [2]): 211 nM

Sequence | Kd (HLA-A*02:06; [1]) | Kd (HLA-A*02:02; [1]) | Kd (HLA-A*02:03; [1]) | further results
FLARKGIDT | 3040 nM | 1020 nM | 318 nM | 
FTSYKRFVT | 12400 nM | 2330 nM | 3380 nM | 
GANGSTAEQL | ≥ 55400 nM | 7280 nM | ≥ 45300 nM | 
GLAFSIMKSV |  |  |  | Kd (HLA-A*02:03; [5]): 11.6 nM
GLDERFVEEL | 2520 nM | 93 nM | 1210 nM | 
GLKALYETEL |  |  |  | Kd (HLA-A*02:06; source organism: Homo sapiens): ≥ 71200 nM
GLSDRVVFV |  |  |  | Kd (HLA-A*02:06; [2]): 68.6 nM; Kd (HLA-A*02:02; [2]): 1.04 nM; Kd (HLA-A*02:03; [2]): 1.07 nM
GLSSGFYFEI | 1730 nM | 48.3 nM | 782 nM | 
HVLGRLITV |  |  |  | Kd (HLA-A*02:06; [6]): 8.84 nM
IIYSKAGNIL | 342 nM | 8.48 nM | 110 nM | 
ILKDPRIASI | 4000 nM | 3160 nM | 1030 nM | 
IMKDGREIV |  |  |  | Kd (HLA-A*02:03; [3]): 110 nM
ITRLEVIGL | 776 nM | 5510 nM | 213 nM | 
IVAALVFLI |  |  |  | Kd (HLA-A*02:06; [2]): 1.81 nM; Kd (HLA-A*02:02; [2]): 0.138 nM; Kd (HLA-A*02:03; [2]): 15.5 nM
IVNNFITKEI | 14200 nM | 1470 nM | 192 nM | 
KTANNYETI | 329 nM | 37.2 nM | 38.5 nM | 
KTRLFRSPQV | 433 nM | 9270 nM | 984 nM | 
LAFVVFLLV |  |  |  | Kd (HLA-A*02:06; [2]): 253 nM; Kd (HLA-A*02:02; [2]): 458 nM; Kd (HLA-A*02:03; [2]): 1270 nM
LAIKNYYRKT | ≥ 69800 nM | ≥ 36800 nM | 7180 nM | 

Sequence | Kd (HLA-A*02:06; [1]) | Kd (HLA-A*02:02; [1]) | Kd (HLA-A*02:03; [1]) | further results
LATLNTLITL | 323 nM | 139 nM | 338 nM | 
LLENKSLTIL | 7430 nM | 185 nM | 541 nM | 
LSAEELMSL |  |  |  | Kd (HLA-A*02:06; [7]): 65.9 nM; Kd (HLA-A*02:02; [7]): 64.5 nM; Kd (HLA-A*02:03; [7]): 705 nM
LVVVTTLCAI |  |  |  | Kd (HLA-A*02:06; [8]): 91.2 nM
MIGNYFSGVL | 1310 nM | 712 nM | 761 nM | 
MMILPAALA |  |  |  | Kd (HLA-A*02:03; source organism: Dengue virus 3 Sri Lanka/1266/2000): 46.4 nM
NITPDDGLGL | 3450 nM | 1910 nM | 1290 nM | 
NQAVVLMGL |  |  |  | Kd (HLA-A*02:06; [5]): 88.4 nM
NQILEENMEV |  |  |  | Kd (HLA-A*02:06; [8]): 29.1 nM
NTDHPLSINV | 1.64 nM | 388 nM | 583 nM | 
NTVGMSIVCI | 1210 nM | 3020 nM | 1540 nM | 
NVFISPASI | 660 nM | 202 nM | 0.727 nM | 
NVIEDITFL | 25.8 nM | 146 nM | 300 nM | 
RIASILSLET | 751 nM | 583 nM | 449 nM | 
RIITILQDI | 2.01 nM | 583 nM | 5.57 nM | 
RISSSLDQT | ≥ 27800 nM | 6790 nM | 12800 nM | 
RLFTRCAVI | 2820 nM | 93.8 nM | 249 nM | 
RTLILAPTRV |  |  |  | Kd (HLA-A*02:06; [6]): 466 nM
RVMANNVKKK |  |  |  | Kd (HLA-A*11:01): 96 nM; Kd (HLA-A*31:01): 760 nM; Kd (HLA-A*68:01): 539 nM; Kd (HLA-A*33:01): ≥ 28200 nM; Kd (HLA-A*03:01): 103 nM
